Laboratory results as given in PMC8910529.

What was measured:
[1] = target: His598 (UniProt position 598, TSCGCHEAIMA); assay: kinetics; details: 20 mM PBS; Ni-reconstituted protein (Nid site occupied, labile Nip removed with phenanthroline), turning over superoxide
[2] = target: His598 (UniProt position 598, TYCGCHEAIMA); assay: kinetics; details: 20 mM PBS; Ni-reconstituted protein (Nid site occupied, labile Nip removed with phenanthroline), turning over superoxide

Acetyl-coenzyme A synthase, truncated C-terminal fragment ACS-alpha15, EFG-F598H variant (Moorella thermoacetica; F598H;S594_C595insEFG)
pKa [1]: 6.09

Acetyl-coenzyme A synthase, truncated C-terminal fragment ACS-alpha15, YGP-F598H variant (Moorella thermoacetica; S594Y;Y594_C595insGP;F598H)
pKa [2]: 5.87
